# In the domain aggregation screens of Martell et al. (2025):
# Test: soluble fraction after stress (log2 fold change); higher = more stays soluble; pooled small domains, quantitative proteomics
# Conditions: stress: 75 degC
# 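Further: 20 min heating vs room temperature control held 20 min.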
row,Sequence,soluble fraction (log2)
1,HMGSFISADEALAKALSHAGLDQSAIRELEMDSELDDDVPHYSIDFKSGNLEYEYEISATDGSVLKFEQD,0.118
2,HMGSKEQELVILNNILERQLQAINLQKSAAGPMVNLRNVHNTLTKLVEAAGLKNVETYFTDPVIGAAQ,-0.0941
3,HMGSNTLEDAYKVLGITPDATDDEVRKAYKKMVIQHHPDKVANLGEDVKKAATIKLQEINNAKEIIFKARN,0.0129
4,HMGSQSYVAIVNERFKESDIVELGGSVGSRTGDIITLHFRNSSPNELKNITGIVYLQVANKVTPKL,-1.26
5,HMGSTDTLEDALEAAEKISYPVIIKATAGGGGRGMKVASSLEELKKVYHTTKLEAKNAFGNDQVYIEKYL,0.162
6,HMGSTYGISRVDNETSRTHGWLVTIQRRGVIYRKHFSDGVFGGKQRSFAAAKEYRDEVIAAHP,-2.68
7,HMGSVVATLRKLIIDGHYPAGTRLAEIPVANALGVSRTPVRLAFRTLQQEGLLQTVGKRGIVVRAF,-1.28
8,HMGSWDDFFNAIRLDNPNTLQALLQRGFDPNTVDQQGTPALMRALQEQSYRAAEVLADHPQI,-0.603
9,HMGTAGLSPWHKIAVLMIALGPEGASELMRHFGEDEVEQVVQAIADLKNVPSELQDAVLLEMEGALQEG,0.00911
10,HMGTDVFIMTGGTRKRGATWSYYFDLGKIDGKRQKKEKGGFKTKKEAETALAKAINEYNNAGA,-0.506
11,HMGTFIATVEANSLDIYKSMSSNETIGKANKGEVFQILEDMGSGYARVSYNDVEGYLSIRDGDATIEE,0.0208
12,HMGTGADQVSWKTGDKVTHKKWGEGTVVKVSGSGNDKELDIAFPQQGVKRLLASFAPIKKVT,-0.0162
13,HMGTGQTNEKLAVLTNIQKTQEQILLTLGAKNPLVNLKQYRETLAKILSLSGYKNSNEFFLDPM,-0.184
14,HMGTGTYQVWSANGLGVRMRSGPGTGYRILAVYSVGTSVTVLQKGAYWSYIRVGSRTGYMMNQFLVSG,0.609
15,HMGTGVEQGKQYRTLKRDFDGASGIKVNGDFYRLRTSDTGMTELPAGTEVTFERFDGTTAVVHT,0.0416
16,HMGTHPGIDSGIISDILALKKELPTRSAAKIITMLTLAGKMEENSIHVKTVNRILYQYGYTRDTLS,-1.92
17,HMGTITKRTNPSGAVVWRAQIRINKADMPTYSESKTFSKKSLATEWLKRREAEIEANPDLIL,-0.929
18,HMGTKDVNAAPSAVGRTYDEAIEILNGYKAGYLEEYSDTVPKGTVISQSVQDGQVVIVVSLGPKPS,-0.136
19,HMGTKVGAPLPGTITEVKVKVGDTVKAGDAVIILEAMKMQNNIEAEVSGTVSSVLVKEGDTVMEGDALITI,-0.0573
20,HMGTLNLSQAYREWGMAEIEANRDYYGPVRFDDIAFQMSPAGQQLQARFVASYADRLHDAIEGEL,-0.364
21,HMGTLRPKGTVVFANLPIAADAKEGDMYNISDQFTTTASFKEGAGNVIPAGSNVYRTDDGFWDVL,0.783
22,HMGTPEQSAQFEQVLEELKNVPGPVMKAMQRAQDIYGYLPIEIQSRIGQAFGVSLEEVYGIATFYSQFNL,-2.55
23,HMGTQKVQVVNGPINVRSGPGPTFEKIGMVEDQAVYQVVSKKDDWFQISLPGNKTAWVAGWLVKEIK,-0.035
24,HMGTRHPLPYAFAKAHTVLLEDDGDRLLLHAAENSGPSALGEILRLYDVDALERETASTLANRIAVAYAG,0.175
25,HMGTSGLTIPRFVSLASGTVHMRAGPGVRYPITWIYKRLGTPLMVMAEHEFWRKVRDAEGTEGWMHRSLLS,0.0559
26,HMGTSIMIIIVKPETKKERVNDLIHWIESQNLRTHLSTGDYSTIIGVIGDTSKLDSELIRGLDIVENVKRV,-2.18

row,Sequence,soluble fraction (log2)
1,HMGTSMDPPVIIVSDGKLIQKGLEVSGLKKQWLYDLIDRKHMKISDIFLLTADKTGKYNLIKRS,-0.0253
2,HMGTSQSAVKAILAQLISDENKQKPYSDEALSRLLQQQGIDIARRTVAKYREALNIPPAHQRK,0.26
3,HMGTSRVQSILFDQSQWTINRAVHWLNTHHFISTKIDKTDKYLRFRQFDPNPDSHHATKRTSQGITFILE,-4.37
4,HMGTTIAMSKLKQVLRWKEEGYSNRKIAQLVGLNKETVNNYISRANADSLSQKELLQLDDFVLDIRLRG,-1.76
5,HMGTTTGKVNATGVNFRTGPSTSYSSMGKLGIDTAVTILGKSGDWYQVKVNSTGKTGYVFAKYITITSVV,-1.95
6,HMGTVIGMGRITAGGVNFRETEGGGVIEKLERDTLVEVLTVPSVIDTTHWYQVRYNNRTGYVQAPFVQLLG,-1.7
7,HMGTVKWFNATKGFGFIVPSDGGKDVFVHITAVQKAGLQGLNEGQKVSYEVAMERGKAAATNLR,-0.782
8,HMGTVRFYNKERGFGFVVSDDGESVFLPAKALPDGVSDLSPGTRVDYGAALGKKGSQ,0.0973
9,HMGVAAPMPGTITDVRVKVGDRVQPRTVVMMLEAMKMENEIFAGRAGVVSQVAVEKGASVNTGDLLISIDP,-0.311
10,HMGVAASEVHREKKESSLQWRQSYNVATDQRRQGKTYKEITEFLNGAELKNSKGGTWSISGVRKMLM,0.0165
11,HMGVARGQAQVTTRQHVVQPGETLYQISKQYGVTVAEILRYNADIEDNTVKVGQTLQIPTPLP,≥ 1.04
12,HMGVDMAPESIVGKKGVAATELRPAGKVEIHGQVYDAVSVGMFIKRGTGVKVVRYEAAQIYVEPE,-0.544
13,HMGVEALTPRQREVLALMAQGRSNGWIAAELGLSEKAIVQHTSNIYDMLGLAVDADDHRRVLAVIHYLT,-1.19
14,HMGVENDGYVLPRELKKGDTVLIADLGKEATVLSPVDRNGNVEVLAGAAKTRVKLKNLRLIE,0.0345
15,HMGVEVPRGDGSTVVRVRAGSSLADFAERIGADPAALITVLFRMGEMATVNQSLDEDTFKLLGAELGYDVQ,-0.704
16,HMGVGIAEAMKHVADEDYGDLSSEFQRIFSAVDGGSTLGDAVRAQMRATSSAGLRRTLSVLAMSVE,0.553
17,HMGVGTTDERLAVLNQIASRQTEALEKLGPNNPLVGLGQIRNTLSKMLEISGYPDSNQFFKQVPLDYEPPP,0.156
18,HMGVIDTLSGPQKAAAILVAIGRPSASRLLKHFNAEDLRKLAGHARTLEPISPLDFEHLVKQFEDSFAEG,-0.874
19,HMGVIGADIRALRVSRGWTLSDLAEALDRSVGWLSQVERDVSEPALADIRRIAGIFDLPVSFFFSD,-2.64
20,HMGVLDFSAQLLKHLEMNGGQTPLGDKSPAEEIYAVFGVSKKVFKKAVGDLYRKRLIEISSNGIRMTS,-2.14
21,HMGVLGVDALAAAAEVSVDTVRYYQHLGLLEPPRREGRRAVYGPSHLARMGEIRRLAAAGFTLDQIRQLAE,-2.81
22,HMGVPTEQQSLIGKSGIAATDLRPSGKVEIDGKRYDAVSNYAGFIAKGTPISVVRYETGQIYVE,0.205
23,HMGYDDVIVINGKNETYGFPTKVEDDPVLSLVIKGDRSIDYAEERRLFYVAMTRTKNRVFFVAP,0.0548
24,HMGYGEQEAEATKYMSLHAIMSADETLSKMYTPENQHKLMTHVMEQNGIKNVKDYLTPPSELP,0.016
25,HMGYPYDTVTTAKVNLRAKRSTSSDILKKIPEGATVTVKGVTGTFASVDYNGTSGYVKVDYLV,-0.46
26,HMGYSSKISELLTKYNMNASELAQKVGVPPTTIYSIIKRDSKKADIEVLIKIAKLFNVPVEYF,-2.38

row,Sequence,soluble fraction (log2)
1,HMGYTPGVVIQKSAILEEINQPDLALGMMLEAVKKDSQNLDILNRLVTLLIDQKKNEDAEIYNKKIIT,0.234
2,HMHAGMKSWTIQYEKSPIYGSFLMYKDGNIYIQKEDNVVVHFPLDRFSQNDQAILKSRIEKIDQINKSS,-0.761
3,HMHAPKIIVLTINPDKIRDVIGPGGKMIKSIVAATGVKMDVEDDGKIHISSSDQKAADEAIRMINEITAEA,0.146
4,HMHAPLEVGSVVRIEGQKALGTILSISDREAIVALGALKTTIPLKRLHGVSPAEAQRHLRKTTPAQAVR,-0.665
5,HMHAQDTLMTRAGETRTVKILEIGLEEIKYRIWGLDDSPVIVIDKIDVKQIVFSNGEKMTIVQ,-1.47
6,HMHDLTERQREILQTLASGKMALREILSILSQPPSLRTLRDELYHLKRIGLVDTMGYGRGATWFLTQ,-0.223
7,HMHDNPLSAQEQRVLDLIAAGKTSKEIASQLFLSDGTVRNYTTSIFNKLNANNRVEAINIAQENGW,0.866
8,HMHDPRLPLPGTLLAREFQGRDIVVKVLDNGFEFDGRRYKSLSAIAQEVTGSKWNGFLFFGI,-1.33
9,HMHDWDITTAAKPEKIFELFSDIPVLETGLKHGTVTLLIDHEPYEVTTFRVDGNYTDGRHPDSVAFT,0.189
10,HMHGESIPIPNILHKRYADAEQIVNNLRLEIEVTDTGYVRSLPPGAILEQTPGPGERVKSGHIIYVTINAA,-1.42
11,HMHGETLAAKRREEIKVRIQNIYDQSEQIFGYRKITATLRSQGVVVSEKLVSQLMRELEISSVS,-3.92
12,HMHGSSVEIPNIYGLPASEAVQLLDKADLRYEVIDSVYTTEVPKGAVYDLSPKAGSRVKAGRIIFLTLNA,-0.942
13,HMHGSTAVVPQIKNMPYSEASVRLGANGLAIEINDSVYDRDMPPGTVIESWPKAGAVVKQGRQVYVTVTA,-0.425
14,HMHHGALKQALLDETARILAEEGESALSLRRLASNLGVSRTAPYNHFDNKDALLSAVAEEGFRR,-0.0868
15,HMHIELNDTQKRILNFLSDDPNLSAVRLAEQLGISSRNVEKNIKKLKEYGILIRHGSPKNGYWEIVV,0.0385
16,HMHITSFTIKQADQIVGTTPVREQAVGAAKARAQQTGTPVSVIAYLDTGEEREVIIHPDGTN,0.479
17,HMHKLTSRQEEILQFIKDYLSEIGYPPTRSEIAQKMGFRSTNAAEEHLRALARKGAIEILPGPSRGLRLP,-1.13
18,HMHKTEIKIPSREDILAVLRQAQAPLTREQVFEHLKLTEDQIPIIEKRLNAMERDGQLMPNRKGMLLLSTK,-0.0438
19,HMHKYEYESLNHVNVGSNLKYISTHFGQPKLIKKSKYHENLNFAYYLEKKFILTLILEGDRVNAYTITG,-0.732
20,HMHLEKGEVVVPDLKGLTMRQVGELLGKLNLRYSFSGTGLAVKQFPESGQIVNQGDIIEVIF,-0.56
21,HMHLLPAREQVAAYLRKAILRQEIREGTILNLADTARQMGVSVTPVREALQLLAAQGLVRLRPNKGAVVMG,-1.68
22,HMHLNVYRDEDEAMLAFKDHLIGTHQPIRVRVEKALPDGTMGHKIVDTTIGRIVFNHNIPQD,-0.185
23,HMHLTEAPLIKITYFEADQKKSGGQYITIINHLKKINEYENLLVLENGVKINIDDIYELESV,-0.191
24,HMHMNFGEILQTKRKEKGFTQEELAHQLLVSSKTISNWETNKTTPDIDNVIRISQLFDISLNQLLLE,-1.03
25,HMHMSKKLADSIISLRRKHGFSQEQLAEKIGVTRQAISNWERGTATPDVETLNLIAKLFDMDLLAIINGE,0.0813
